Test results: the supplement of paper PMC5998384

Tests used:
HeLa Kyoto [1] = assay: solubility in G1/S (NP-40 vs SDS abundance) (log2 ratio); higher = more soluble; details: cell cycle stage: G1/S
HeLa Kyoto [2] = assay: melting temperature (median over replicates), in situ; higher = more thermally stable
HeLa Kyoto [3] = assay: thermal stability score vs G1/S (z-score of summed log2 fold changes over temperatures); higher = more thermally stable than in G1/S
HeLa Kyoto [4] = assay: solubility change mitosis vs G1/S (difference of NP-40 vs SDS log2 ratios) (log2 ratio difference); higher = more soluble in mitosis
[5] = cell cycle stage: early G1 (4.5 h after nocodazole release)
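For melting temperature (median over replicates), in situ in this document: HeLa Kyoto cells synchronized by double thymidine or nocodazole block, proteins quantified by TMT10plex mass spectrometry, three independent biological replicates.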
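For solubility change mitosis vs G1/S (difference of NP-40 vs SDS log2 ratios) in this document: synchronized HeLa Kyoto cells (double thymidine block for G1/S, nocodazole release for mitosis), protein amounts in NP-40 versus SDS lysates quantified by mass spectrometry, three biological replicates.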
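For solubility in G1/S (NP-40 vs SDS abundance) in this document: HeLa Kyoto cells arrested at G1/S by double thymidine block, proteins quantified by TMT10plex mass spectrometry in mild NP-40 versus SDS extracts, three biological replicates.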
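For thermal stability score vs G1/S (z-score of summed log2 fold changes over temperatures) in this document: synchronized HeLa Kyoto cells, proteins quantified by TMT10plex mass spectrometry, three biological replicates, mitosis taken 0.5 h after nocodazole release, G1/S directly after double thymidine block.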

For “MAAKVFESIGKFGLALAVAGGVVNSALYNVDAGHRAVIFDRFRGVQDIVVGEGTHFLIPWVQKPIIFDCRSRPRNVPVITGSKDLQNVNITLRILFRPVASQLPRIFTSIGEDYDERVLPSITTEILKSVVARFDAGELITQRELVSRQVSDDLTERAATFGLILDDVSLTHLTFGKEFTEAVEAKQVAQQEAERARFVVEKAEQQKKAAIISAEGDSKAAELIANSLATAGDGLIELRKLEAAEDIAYQLSRSRNITYLPAGQSVLLQLPQ [PHB]”, the “solubility in G1/S (log2)” value (HeLa Kyoto [1]) was -0.137, the melting temperature (HeLa Kyoto [2]; cell cycle stage: G1/S) was 59.5 °C and the melting temperature (HeLa Kyoto [2]; cell cycle stage: mitosis) was 58.1 °C. For the same substance, the thermal stability score (HeLa Kyoto [3]; [5]) was -1.45, the thermal stability score (HeLa Kyoto [3]; cell cycle stage: mitosis) was -2.71 and the “solubility change mitosis (log2)” value (HeLa Kyoto [4]) was -0.0774.

For “MEGSLEREAPAGALAAVLKHSSTLPPESTQVRGYDFNRGVNYRALLEAFGTTGFQATNFGRAVQQVNAMIEKKLEPLSQDEDQHADLTQSRRPLTSCTIFLGYTSNLISSGIRETIRYLVQHNMVDVLVTTAGGVEEDLIKCLAPTYLGEFSLRGKELRENGINRIGNLLVPNENYCKFEDWLMPILDQMVMEQNTEGVKWTPSKMIARLGKEINNPESVYYWAQKNHIPVFSPALTDGSLGDMIFFHSYKNPGLVLDIVEDLRLINTQAIFAKCTGMIILGGGVVKHHIANANLMRNGADYAVYINTAQEFDGSDSGARPDEAVSWGKIRVDAQPVKVYADASLVFPLLVAETFAQKMDAFMHEKNED [DHPS]”, the “solubility in G1/S (log2)” value (HeLa Kyoto [1]) was 0.164, the melting temperature (HeLa Kyoto [2]; cell cycle stage: G1/S) was 56.2 °C and the melting temperature (HeLa Kyoto [2]; cell cycle stage: mitosis) was 56.8 °C. The thermal stability score (HeLa Kyoto [3]; [5]) was -0.0223, the thermal stability score (HeLa Kyoto [3]; cell cycle stage: mitosis) was -1.85 and the “solubility change mitosis (log2)” value (HeLa Kyoto [4]) was -0.0341.

In the case of “MDDQGCPRCKTTKYRNPSLKLMVNVCGHTLCESCVDLLFVRGAGNCPECGTPLRKSNFRVQLFEDPTVDKEVEIRKKVLKIYNKREEDFPSLREYNDFLEEVEEIVFNLTNNVDLDNTKKKMEIYQKENKDVIQKNKLKLTREQEELEEALEVERQENEQRRLFIQKEEQLQQILKRKNKQAFLDELESSDLPVALLLAQHKDRSTQLEMQLEKPKPVKPVTFSTGIKMGQHISLAPIHKLEEALYEYQPLQIETYGPHVPELEMLGRLGYLNHVRAASPQDLAGGYTSSLACHRALQDAFSGLFWQPS [MNAT1]”, the “solubility in G1/S (log2)” value (HeLa Kyoto [1]) is reported as -0.181, the melting temperature (HeLa Kyoto [2]; cell cycle stage: G1/S) is reported as 52.1 °C and the melting temperature (HeLa Kyoto [2]; cell cycle stage: mitosis) is reported as 53 °C. For the same substance, the thermal stability score (HeLa Kyoto [3]; [5]) was -0.397, the thermal stability score (HeLa Kyoto [3]; cell cycle stage: mitosis) was -0.426 and the “solubility change mitosis (log2)” value (HeLa Kyoto [4]) was 0.565.

“MAASEAAVVSSPSLKTDTSPVLETAGTVAAMAATPSARAAAAVVAAAARTGSEARVSKAALATKLLSLSGVFAVHKPKGPTSAELLNRLKEKLLAEAGMPSPEWTKRKKQTLKIGHGGTLDSAARGVLVVGIGSGTKMLTSMLSGSKRYTAIGELGKATDTLDSTGRVTEEKPYDKITQEDIEGILQKFTGNIMQVPPLYSALKKDGQRLSTLMKRGEVVEAKPARPVTVYSISLQKFQPPFFTLDVECGGGFYIRSLVSDIGKELSSCANVLELTRTKQGPFTLEEHALPEDKWTIDDIAQSLEHCSSLFPAELALKKSKPESNEQVLSCEYITLNEPKREDDVIKTC [TRUB1]” was tested, and the “solubility in G1/S (log2)” value (HeLa Kyoto [1]) was 0.549, the melting temperature (HeLa Kyoto [2]; cell cycle stage: G1/S) was 50.2 °C and the melting temperature (HeLa Kyoto [2]; cell cycle stage: mitosis) was 50.2 °C. For the same substance, the thermal stability score (HeLa Kyoto [3]; [5]) was 1.48, the thermal stability score (HeLa Kyoto [3]; cell cycle stage: mitosis) was 1.46 and the “solubility change mitosis (log2)” value (HeLa Kyoto [4]) was -0.0378.

With POLE the “solubility in G1/S (log2)” value (HeLa Kyoto [1]) was -0.355, the melting temperature (HeLa Kyoto [2]; cell cycle stage: G1/S) was 49.5 °C and the melting temperature (HeLa Kyoto [2]; cell cycle stage: mitosis) was 51.5 °C. The thermal stability score (HeLa Kyoto [3]; [5]) was 0.724, the thermal stability score (HeLa Kyoto [3]; cell cycle stage: mitosis) was 1.31 and the “solubility change mitosis (log2)” value (HeLa Kyoto [4]) was -0.0472.

For HEATR5B, the “solubility in G1/S (log2)” value (HeLa Kyoto [1]) was -0.275, the melting temperature (HeLa Kyoto [2]; cell cycle stage: G1/S) was 50.8 °C and the melting temperature (HeLa Kyoto [2]; cell cycle stage: mitosis) was 52.4 °C. For the same substance, the thermal stability score (HeLa Kyoto [3]; [5]) was -0.405, the thermal stability score (HeLa Kyoto [3]; cell cycle stage: mitosis) was -0.289 and the “solubility change mitosis (log2)” value (HeLa Kyoto [4]) was -0.00901.
